# Results reported in the supplement of paper PMC9233669.
# This sample holds only a part of the variants without activity.
# Assays:
# [1] = system: biotinyl-Val-oxazolone; test: self-aminoacylation, catalytic enhancement (BVO) (fold over background); higher = more active; k-Seq, kA / k0A0; sequences stand for … in GGGAAUGGAUCCACAUCUACGAAUUC…UUCACUGCAGACUUGACGAAGCUG
# Outline: (§1)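 The uncatalyzed rate is the low-activity peak of a bimodal Gaussian fit, and catalytic enhancement is median kA divided by it. The kA values came from pseudo-first-order fits, with 1000 bootstraps, of per-sequence fraction reacted measured by streptavidin capture, triplicate qPCR and Illumina sequencing. Mutagenized RNA pools with a 21-nt variable region (0.43 μM) were reacted with each biotinyl-aminoacyl-oxazolone at 2–1250 μM in 50 μL HEPES/NaCl/KCl/MgCl2/CaCl2 buffer with 5% acetonitrile, pH 6.9–7.0, for 90 minutes at room temperature.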
# [2] = system: biotinyl-Ile-oxazolone; test: self-aminoacylation, catalytic enhancement (BIO) (fold over background); higher = more active; k-Seq, kA / k0A0; sequences stand for … in GGGAAUGGAUCCACAUCUACGAAUUC…UUCACUGCAGACUUGACGAAGCUG
# Outline: as §1
# [3] = system: biotinyl-Leu-oxazolone; test: self-aminoacylation, catalytic enhancement (BLO) (fold over background); higher = more active; k-Seq, kA / k0A0; sequences stand for … in GGGAAUGGAUCCACAUCUACGAAUUC…UUCACUGCAGACUUGACGAAGCUG
# Outline: as §1
# [4] = system: biotinyl-Trp-oxazolone; test: self-aminoacylation, catalytic enhancement (BWO) (fold over background); higher = more active; k-Seq, kA / k0A0; sequences stand for … in GGGAAUGGAUCCACAUCUACGAAUUC…UUCACUGCAGACUUGACGAAGCUG
# Outline: as §1
# [5] = system: biotinyl-Met-oxazolone; test: self-aminoacylation, catalytic enhancement (BMO) (fold over background); higher = more active; k-Seq, kA / k0A0; sequences stand for … in GGGAAUGGAUCCACAUCUACGAAUUC…UUCACUGCAGACUUGACGAAGCUG
# Outline: as §1
# [6] = system: biotinyl-Phe-oxazolone; test: self-aminoacylation, catalytic enhancement (BFO) (fold over background); higher = more active; k-Seq, kA / k0A0; sequences stand for … in GGGAAUGGAUCCACAUCUACGAAUUC…UUCACUGCAGACUUGACGAAGCUG
# Outline: as §1
sequence,measurement,setting,value
AAAUUAGCUAAUAGUCGCAAG [Fam3.1 aminoacylation ribozyme variant],self-aminoacylation,[1],1.81
same,self-aminoacylation,[2],2.36
same,self-aminoacylation,[3],1.92
same,self-aminoacylation,[4],3.09
same,self-aminoacylation,[5],1.85
same,self-aminoacylation,[6],2.21
AAAUUUCCUAAUAGUCGCAAG [Fam3.1 aminoacylation ribozyme variant],self-aminoacylation,[1],1.09
same,self-aminoacylation,[2],1.24
same,self-aminoacylation,[3],1.18
same,self-aminoacylation,[4],0.976
same,self-aminoacylation,[5],1.1
same,self-aminoacylation,[6],1.2
AAAUUUGCGAAUAGUCGCAAG [Fam3.1 aminoacylation ribozyme variant],self-aminoacylation,[1],1.56
same,self-aminoacylation,[2],1.71
same,self-aminoacylation,[3],1.33
same,self-aminoacylation,[4],1.54
same,self-aminoacylation,[5],1.59
same,self-aminoacylation,[6],1.99
AAAUUUGCUAAUACUCGCAAG [Fam3.1 aminoacylation ribozyme variant],self-aminoacylation,[1],1.34
same,self-aminoacylation,[2],1.36
same,self-aminoacylation,[3],1.25
same,self-aminoacylation,[4],1.51
same,self-aminoacylation,[5],1.33
same,self-aminoacylation,[6],1.63
AAAUUUGCUAAUAGGCGCAAG [Fam3.1 aminoacylation ribozyme variant],self-aminoacylation,[1],1.04
same,self-aminoacylation,[2],1.41
same,self-aminoacylation,[3],1.51
same,self-aminoacylation,[4],1.25
same,self-aminoacylation,[5],1.28
same,self-aminoacylation,[6],1.29
AAGCUUGCUAAUAGUCGCAAU [Fam3.1 aminoacylation ribozyme variant],self-aminoacylation,[2],2.93
same,self-aminoacylation,[4],2.66
same,self-aminoacylation,[5],2.34
same,self-aminoacylation,[6],2.59
AAGCUUGCUUAUAGUCGCAAG [Fam3.1 aminoacylation ribozyme variant],self-aminoacylation,[2],2.13
same,self-aminoacylation,[6],3.55
AAGGUCGCUAAUAGUCGCAAG [Fam3.1 aminoacylation ribozyme variant],self-aminoacylation,[1],2.13
same,self-aminoacylation,[4],2.4
same,self-aminoacylation,[6],2.86
AAGUAUGCUAAUAGUCGCGAG [Fam3.1 aminoacylation ribozyme variant],self-aminoacylation,[2],2.14
same,self-aminoacylation,[3],2.21
same,self-aminoacylation,[4],4.06
same,self-aminoacylation,[6],5.66
AAGUUCGCCAAUAGUCGCAAG [Fam3.1 aminoacylation ribozyme variant],self-aminoacylation,[2],2.29
same,self-aminoacylation,[3],2.67
same,self-aminoacylation,[4],2.98
same,self-aminoacylation,[5],2.18
same,self-aminoacylation,[6],2.83
AAUUUUGGUAAUAGUCGCAAG [Fam3.1 aminoacylation ribozyme variant],self-aminoacylation,[2],2.06
same,self-aminoacylation,[5],2.19
same,self-aminoacylation,[6],2.19
ACGUUUGCUAAUAGUCGCAAA [Fam3.1 aminoacylation ribozyme variant],self-aminoacylation,[2],2.01
same,self-aminoacylation,[4],2.36
same,self-aminoacylation,[6],2.87
ACGUUUGCUAAUAGUCGCAUG [Fam3.1 aminoacylation ribozyme variant],self-aminoacylation,[2],2.21
same,self-aminoacylation,[3],2.5
same,self-aminoacylation,[5],2.14
same,self-aminoacylation,[6],3.06
ACGUUUGCUAAUAGUCGCGAG [Fam3.1 aminoacylation ribozyme variant],self-aminoacylation,[1],2.12
same,self-aminoacylation,[2],2.65
same,self-aminoacylation,[3],2.48
same,self-aminoacylation,[6],10.4
ACUACCCUGGUCAUCGAGGGA [Fam2.1 aminoacylation ribozyme variant],self-aminoacylation,[2],2.12
same,self-aminoacylation,[3],3.13
same,self-aminoacylation,[4],3.04
same,self-aminoacylation,[5],3.62
same,self-aminoacylation,[6],2.42
AUCACCCUGGUCAUCGAGCGA [Fam2.1 aminoacylation ribozyme variant],self-aminoacylation,[1],2.53
same,self-aminoacylation,[2],2.01
same,self-aminoacylation,[3],3.35
same,self-aminoacylation,[4],2.62
same,self-aminoacylation,[5],2.16
AUCACCCUGGUCAUCGAGGGA [Fam2.1 aminoacylation ribozyme variant],self-aminoacylation,[1],2.03
same,self-aminoacylation,[3],3.12
same,self-aminoacylation,[4],2.94
same,self-aminoacylation,[5],2.2
same,self-aminoacylation,[6],12.5
AUUACCCUGGACUUCGAGUGA [Fam2.1 aminoacylation ribozyme variant],self-aminoacylation,[1],2.17
same,self-aminoacylation,[3],3.17
same,self-aminoacylation,[4],4.38
same,self-aminoacylation,[5],2.96
same,self-aminoacylation,[6],11.4
AUUACCCUGGUCAUCGAGCCA [Fam2.1 aminoacylation ribozyme variant],self-aminoacylation,[2],2.01
same,self-aminoacylation,[3],2.23
same,self-aminoacylation,[4],3.35
same,self-aminoacylation,[5],2.36
same,self-aminoacylation,[6],2.92
AUUACCCUGGUUAUCGAGUGU [Fam2.1 aminoacylation ribozyme variant],self-aminoacylation,[3],2.57
same,self-aminoacylation,[4],3.92
same,self-aminoacylation,[5],2.66
same,self-aminoacylation,[6],3.12
AUUACCGUGGUGAUCGAGUGA [Fam2.1 aminoacylation ribozyme variant],self-aminoacylation,[1],2.31
same,self-aminoacylation,[3],3.67
same,self-aminoacylation,[4],5.02
same,self-aminoacylation,[5],3.87
same,self-aminoacylation,[6],15.6
AUUACUCUGGUCAUCGUGUGA [Fam2.1 aminoacylation ribozyme variant],self-aminoacylation,[3],2.81
same,self-aminoacylation,[4],3.34
same,self-aminoacylation,[5],2.45
same,self-aminoacylation,[6],12.5
AUUCACCGAGGUCAUCGGGUC [Fam2.2 aminoacylation ribozyme variant],self-aminoacylation,[1],2.71
same,self-aminoacylation,[2],2.18
same,self-aminoacylation,[3],2.52
same,self-aminoacylation,[6],7.57
AUUCACCUAAGUCAUCGGGUA [Fam2.2 aminoacylation ribozyme variant],self-aminoacylation,[1],2.62
same,self-aminoacylation,[2],2.81
same,self-aminoacylation,[3],3
same,self-aminoacylation,[4],2.8
same,self-aminoacylation,[5],2.44
AUUCACCUAGAUCAGCGGGUG [Fam2.2 aminoacylation ribozyme variant],self-aminoacylation,[3],3.1
same,self-aminoacylation,[4],2.88
same,self-aminoacylation,[5],2.39
same,self-aminoacylation,[6],11.7
AUUCACCUAGCUCAUCGGGUG [Fam2.2 aminoacylation ribozyme variant],self-aminoacylation,[1],2.1
same,self-aminoacylation,[3],2.05
same,self-aminoacylation,[6],7.85
AUUCACCUAGGGCAUCGGGGG [Fam2.2 aminoacylation ribozyme variant],self-aminoacylation,[1],2.93
same,self-aminoacylation,[2],2.98
same,self-aminoacylation,[3],3.63
same,self-aminoacylation,[5],2.65
same,self-aminoacylation,[6],7.22
AUUCACCUCGGUCAUCGGCUG [Fam2.2 aminoacylation ribozyme variant],self-aminoacylation,[1],2.65
same,self-aminoacylation,[4],2.02
same,self-aminoacylation,[6],8.33
AUUCACGUAGGUCAUCGGGCG [Fam2.2 aminoacylation ribozyme variant],self-aminoacylation,[1],2.56
same,self-aminoacylation,[2],2.07
same,self-aminoacylation,[3],2.57
same,self-aminoacylation,[5],2.41
same,self-aminoacylation,[6],5.97
AUUCACUUAGUUCAUCGGGUG [Fam2.2 aminoacylation ribozyme variant],self-aminoacylation,[2],2.18
same,self-aminoacylation,[3],2.93
same,self-aminoacylation,[4],3.28
same,self-aminoacylation,[5],2.58
same,self-aminoacylation,[6],11.1
AUUCAGCUAGGUCAUCUGGUG [Fam2.2 aminoacylation ribozyme variant],self-aminoacylation,[3],2.35
same,self-aminoacylation,[4],2.25
same,self-aminoacylation,[5],2.3
same,self-aminoacylation,[6],13.4
AUUGCCCUGGUCAUCGAGCGA [Fam2.1 aminoacylation ribozyme variant],self-aminoacylation,[1],2.33
same,self-aminoacylation,[3],3.48
same,self-aminoacylation,[4],3.11
same,self-aminoacylation,[5],2.55
same,self-aminoacylation,[6],3.91
AUUUCCCUGGUCAUCGUGUGA [Fam2.1 aminoacylation ribozyme variant],self-aminoacylation,[3],3.65
same,self-aminoacylation,[4],4.8
same,self-aminoacylation,[5],3.61
same,self-aminoacylation,[6],27.1
CCACACGUCAAGCAAUCGGGC [Fam1B.1 aminoacylation ribozyme variant],self-aminoacylation,[1],2.23
same,self-aminoacylation,[6],2.86
CCACACUUCACGCAAUCGGCC [Fam1B.1 aminoacylation ribozyme variant],self-aminoacylation,[1],3.47
same,self-aminoacylation,[2],2.2
same,self-aminoacylation,[4],4.2
same,self-aminoacylation,[5],2.28
same,self-aminoacylation,[6],13.9
CCACACUUCGCGCAAUCGGUC [Fam1B.1 aminoacylation ribozyme variant],self-aminoacylation,[1],2.51
same,self-aminoacylation,[2],2.21
same,self-aminoacylation,[3],2.41
same,self-aminoacylation,[4],2.77
same,self-aminoacylation,[6],10.5
CCACGCUUCAAGCAAUCGGCC [Fam1B.1 aminoacylation ribozyme variant],self-aminoacylation,[1],2.77
same,self-aminoacylation,[4],8.15
same,self-aminoacylation,[6],7.98
CCACUUCAAACAAUCGGUCUC [Fam1A.1 aminoacylation ribozyme variant],self-aminoacylation,[3],2.13
same,self-aminoacylation,[4],42.2
same,self-aminoacylation,[5],2.08
same,self-aminoacylation,[6],75.8
CCCCGCUUCAAGCAAUCGGUC [Fam1B.1 aminoacylation ribozyme variant],self-aminoacylation,[1],2.69
same,self-aminoacylation,[3],3.73
same,self-aminoacylation,[4],70.4
same,self-aminoacylation,[5],2.12
same,self-aminoacylation,[6],142
CCGCGCUUCAAGCAAUCGGUC [Fam1B.1 aminoacylation ribozyme variant],self-aminoacylation,[1],2.74
same,self-aminoacylation,[3],3.16
same,self-aminoacylation,[4],77.2
same,self-aminoacylation,[5],2.37
same,self-aminoacylation,[6],158
CGACACUUCAAGCAAUCGGUG [Fam1B.1 aminoacylation ribozyme variant],self-aminoacylation,[1],2.27
same,self-aminoacylation,[2],2.4
same,self-aminoacylation,[3],2.22
same,self-aminoacylation,[5],2.37
CUACUGCAAACAAUCGGCCUG [Fam1A.1 aminoacylation ribozyme variant],self-aminoacylation,[1],2.27
same,self-aminoacylation,[3],2.27
same,self-aminoacylation,[4],2.81
same,self-aminoacylation,[5],2.1
same,self-aminoacylation,[6],3.31
CUACUUCAAACAUUCGGGCUG [Fam1A.1 aminoacylation ribozyme variant],self-aminoacylation,[1],2.14
same,self-aminoacylation,[2],2.24
same,self-aminoacylation,[5],2.06
CUUCACCUAGAUCAUCGGGUG [Fam2.2 aminoacylation ribozyme variant],self-aminoacylation,[1],2.12
same,self-aminoacylation,[3],2.86
same,self-aminoacylation,[4],3.41
same,self-aminoacylation,[5],3.54
same,self-aminoacylation,[6],8.35
GUUCACCUAGGUCAACGGGUG [Fam2.2 aminoacylation ribozyme variant],self-aminoacylation,[3],2.5
same,self-aminoacylation,[4],3.22
same,self-aminoacylation,[5],2.11
same,self-aminoacylation,[6],17.5
UUUCACCUAGGUAAUCGGGUG [Fam2.2 aminoacylation ribozyme variant],self-aminoacylation,[2],2.1
same,self-aminoacylation,[3],2.27
same,self-aminoacylation,[4],3.75
same,self-aminoacylation,[5],2.66
same,self-aminoacylation,[6],13.1
